# From the supplement of paper PMC9112550, “Optimization of the antimicrobial peptide Bac7 by deep mutational scanning” (BMC Biology, 2022)
# Tested on: Escherichia coli TOP10
# Assay: shrunken log2 fold change of peptide-encoding DNA abundance (4.5 h post-induction vs induction); higher = less antimicrobial activity (less host growth inhibition)
# Conditions: time post-induction: 4.5 h; library: site-saturation at positions 5, 18, 19, 20
# 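Further: peptides expressed intracellularly from a pBAD plasmid library in pooled LB shake-flask culture, induced with 0.3% L-arabinose, DNA abundance read by NGS, three biological replicates, DESeq2 with apeglm shrinkage.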
row,Sequence,shrunken log2 fold change
1,RRIRSRPPRLPRPRPRPFQPPRP,-0.133
2,RRIRGRPPRLPRPRPRPKDPPRP,0.517
3,RRIRIRPPRLPRPRPRPLEWPRP,-0.0139
4,RRIRSRPPRLPRPRPRPAIQPRP,-0.21
5,RRIRCRPPRLPRPRPRPEFNPRP,-0.0266
6,RRIRTRPPRLPRPRPRPEAQPRP,0.00719
7,RRIRIRPPRLPRPRPRPHRLPRP,-0.122
8,RRIRIRPPRLPRPRPRPWRHPRP,-0.083
9,RRIRWRPPRLPRPRPRPPEPPRP,-0.011
10,RRIRQRPPRLPRPRPRPEPAPRP,0.789
11,RRIRNRPPRLPRPRPRPEQNPRP,-0.21
12,RRIRYRPPRLPRPRPRPMQDPRP,-0.28
13,RRIRNRPPRLPRPRPRPMHKPRP,-0.131
14,RRIRCRPPRLPRPRPRPMILPRP,-0.352
15,RRIRERPPRLPRPRPRPDWSPRP,-0.0645
16,RRIRSRPPRLPRPRPRPVCRPRP,0.199
17,RRIRSRPPRLPRPRPRPHKMPRP,-0.156
18,RRIRKRPPRLPRPRPRPRAIPRP,0.304
19,RRIRRRPPRLPRPRPRPEEWPRP,-0.00804
20,RRIRIRPPRLPRPRPRPGYYPRP,-0.708
21,RRIRARPPRLPRPRPRPVCMPRP,0.226
22,RRIRERPPRLPRPRPRPFCRPRP,-0.0911

row,Sequence,shrunken log2 fold change
1,RRIRWRPPRLPRPRPRPLHEPRP,0.148
2,RRIRLRPPRLPRPRPRPVGQPRP,0.0826
3,RRIRLRPPRLPRPRPRPEVNPRP,0.0855
4,RRIRERPPRLPRPRPRPSNVPRP,-0.441
5,RRIRNRPPRLPRPRPRPGHAPRP,0.32
6,RRIRNRPPRLPRPRPRPQACPRP,-0.0265
7,RRIRRRPPRLPRPRPRPDAFPRP,0.737
8,RRIRYRPPRLPRPRPRPCDAPRP,-0.255
9,RRIRKRPPRLPRPRPRPEVMPRP,0.148
10,RRIRSRPPRLPRPRPRPSQEPRP,-0.26
11,RRIRGRPPRLPRPRPRPKTFPRP,0.292
12,RRIRQRPPRLPRPRPRPPNGPRP,-0.00787
13,RRIRMRPPRLPRPRPRPKRGPRP,-0.0058
14,RRIRLRPPRLPRPRPRPYYIPRP,-0.982
15,RRIRSRPPRLPRPRPRPFIRPRP,-0.412
16,RRIRGRPPRLPRPRPRPKHLPRP,0.0257
17,RRIRRRPPRLPRPRPRPLRDPRP,1.05
18,RRIRFRPPRLPRPRPRPECVPRP,0.0137
19,RRIRGRPPRLPRPRPRPKCHPRP,0.78
20,RRIRLRPPRLPRPRPRPPPCPRP,0.846
21,RRIRFRPPRLPRPRPRPDLWPRP,0.187
22,RRIRNRPPRLPRPRPRPMRSPRP,1.09

row,Sequence,shrunken log2 fold change
1,RRIRRRPPRLPRPRPRPHEYPRP,-0.0758
2,RRIRWRPPRLPRPRPRPSRLPRP,0.00373
3,RRIRPRPPRLPRPRPRPLRYPRP,0.17
4,RRIRKRPPRLPRPRPRPDRVPRP,-0.00884
5,RRIRGRPPRLPRPRPRPMPFPRP,0.118
6,RRIRHRPPRLPRPRPRPPPHPRP,0.703
7,RRIRTRPPRLPRPRPRPHWIPRP,-0.569
8,RRIRGRPPRLPRPRPRPQNVPRP,0.266
9,RRIRDRPPRLPRPRPRPWWHPRP,0.133
10,RRIRTRPPRLPRPRPRPENFPRP,-0.0131
11,RRIRQRPPRLPRPRPRPWHWPRP,0.107
12,RRIRQRPPRLPRPRPRPLMPPRP,-0.0453
13,RRIRPRPPRLPRPRPRPSSSPRP,-0.134
14,RRIRMRPPRLPRPRPRPMPCPRP,-0.00548
15,RRIRDRPPRLPRPRPRPSWWPRP,0.276
16,RRIRFRPPRLPRPRPRPGFHPRP,-0.416
17,RRIRQRPPRLPRPRPRPPWVPRP,0.696
18,RRIRKRPPRLPRPRPRPGDAPRP,0.571
19,RRIRRRPPRLPRPRPRPGCPPRP,0.414
20,RRIRKRPPRLPRPRPRPYFVPRP,-0.264
21,RRIRERPPRLPRPRPRPWIQPRP,-0.0122
22,RRIRMRPPRLPRPRPRPAEQPRP,0.395

row,Sequence,shrunken log2 fold change
1,RRIRDRPPRLPRPRPRPTKSPRP,0.366
2,RRIRERPPRLPRPRPRPDFFPRP,-0.279
3,RRIRIRPPRLPRPRPRPNMCPRP,0.0488
4,RRIRVRPPRLPRPRPRPGNHPRP,-0.245
5,RRIRERPPRLPRPRPRPKNEPRP,-0.315
6,RRIRRRPPRLPRPRPRPSTFPRP,-0.02
7,RRIRFRPPRLPRPRPRPMGHPRP,-0.184
8,RRIRNRPPRLPRPRPRPKEEPRP,0.0169
9,RRIRVRPPRLPRPRPRPMEYPRP,-0.0697
10,RRIRERPPRLPRPRPRPQAGPRP,0.275
11,RRIRTRPPRLPRPRPRPQRRPRP,-0.0307
12,RRIRHRPPRLPRPRPRPHPRPRP,0.224
13,RRIRQRPPRLPRPRPRPWNTPRP,-0.169
14,RRIRDRPPRLPRPRPRPAHFPRP,0.358
15,RRIRTRPPRLPRPRPRPQQNPRP,-0.0459
16,RRIRDRPPRLPRPRPRPQHHPRP,-0.299
17,RRIRDRPPRLPRPRPRPNSHPRP,0.0526
18,RRIRNRPPRLPRPRPRPRKMPRP,0.263
19,RRIRNRPPRLPRPRPRPTHHPRP,-0.0659
20,RRIRSRPPRLPRPRPRPNNQPRP,-0.104
21,RRIRGRPPRLPRPRPRPTISPRP,0.534
22,RRIRERPPRLPRPRPRPQNNPRP,-0.911

row,Sequence,shrunken log2 fold change
1,RRIRCRPPRLPRPRPRPGPYPRP,-0.385
2,RRIRIRPPRLPRPRPRPNIQPRP,-1.03
3,RRIRWRPPRLPRPRPRPGSRPRP,0.244
4,RRIRWRPPRLPRPRPRPETAPRP,0.177
5,RRIRERPPRLPRPRPRPSISPRP,0.0881
6,RRIRDRPPRLPRPRPRPIWSPRP,-0.0288
7,RRIRTRPPRLPRPRPRPNWDPRP,0.00303
8,RRIRNRPPRLPRPRPRPWIAPRP,-0.135
9,RRIRTRPPRLPRPRPRPHGDPRP,-0.146
10,RRIRRRPPRLPRPRPRPCLIPRP,-0.38
11,RRIRCRPPRLPRPRPRPCCQPRP,-0.342
12,RRIRHRPPRLPRPRPRPEMFPRP,0.223
13,RRIRGRPPRLPRPRPRPFKWPRP,-0.0584
14,RRIRTRPPRLPRPRPRPDTQPRP,0.0514
15,RRIRKRPPRLPRPRPRPNFIPRP,-0.144
16,RRIRTRPPRLPRPRPRPRFSPRP,-0.14
17,RRIRNRPPRLPRPRPRPIPHPRP,0.134
18,RRIRWRPPRLPRPRPRPIPVPRP,-0.11
19,RRIRERPPRLPRPRPRPIINPRP,-0.702
20,RRIRSRPPRLPRPRPRPRLDPRP,0.25
21,RRIRLRPPRLPRPRPRPWSDPRP,-0.188
